Data set [1] relates to Pichia angusta Nrt transformants. Description: Functional pre-screening chlorate assay (growth on minimal plate). Conditions: 0.5 mM chlorate, overnight at 30° C. It counts as cell-based, Pichia pastoris. On the procedure: […] These were incubated overnight at 30° C. The amount of growth was observed the next morning. […] This assay was repeated with various Nrt genes.
Data set [2] deals with Pichia pastoris cells with co-expressed Arabidopsis nitrate reductase and a yeast nitrate transporter. Conditions: 150 mM chlorate on solid medium; methanol-inducible AOX promoter; cited from earlier work.
The subject of data set [3] is Arabidopsis Nrt1.1 transformants. Description: Functional pre-screening chlorate assay (growth on minimal plate). It counts as cell-based, Pichia pastoris. Conditions: very small concentrations of chlorate, relative to Pichia angusta Nrt transformants. On the procedure:
5 μL of overnight YPD transformant cultures were spotted onto a minimal plate containing yeast nitrogen base, 10 mM proline, 2% glucose and 3-20 mM chlorate. These were incubated overnight at 30° C. The amount of growth was observed the next morning. […] This assay was repeated with various Nrt genes.

The test system of data set [4] is functional transformants. Description: Chlorate assay, functional transformants with pGAP promoter. The class given is cell-based, Pichia pastoris. The following applies: as low as. The procedure:
A particularly effective way to screen for functional transformants is the use of a chlorate assay. It is known that Pichia pastoris cells with co-expressed Arabidopsis nitrate reductase and a yeast nitrate transporter driven under methanol-inducible AOX promoter are sensitive to 150 mM chlorate on solid medium. See, Unkles, et al., (2004) J. Biol. Chem., 279:28182-86. However, when a constitutive promoter rather than the commonly-used pAOX is used, the sensitivity of the functional transformants to chlorate increases substantially, and therefore the chlorate assay is much more sensitive. For example, when the preferred pGAP promoter is used, functional transformants are sensitive to chlorate concentrations much below 150 mM, such as by concentrations of as low as about 0.5 mM. Of course, the sensitivity level will vary depending on the rate of uptake of the particular Nrt integrated into the Pichia pastoris.

For data set [5], the system named is P. pastoris GS115-YNR1 transformants. Kind of data set: Nitrate transporter (NT) activity of barley two-component HATS transformants, nitrite assay. The class given is cell-based, Pichia pastoris. Conditions: 1 mM NaNO3, 2 hours at 30° C., pH 6.5; compared to negative controls GS115 wt and GS115-YNR1. From the text:
To test if P. pastoris was capable to identify a plant two-component HATS system, the following constructs containing HvNrt2.1 (SEQ ID NO: 5) or HvNar2.3 (SEQ ID NO: 6) were made and transformed into GS115-YNR1 line at AOX locus individually: pPIC3.5-pGAP-HvNrt2.1 or pPIC3.5-pGAP-HvNar2.3. To obtain transformants carrying HvNar2.3 and HvNrt2.1, GS115 wt was transformed with pPIC3.5-pGAPHvNar2.3-pGAPYNR at His 4 locus, then re-transformed with pPIC3.5-pGAP-HvNrt2.1 at AOX locus after the line was confirmed carrying both YNR1 and HvNar2.3 genes by PCR. The transformants were cultured in rich media (YPD) at 30° C. for overnight. Yeast cells were collected and washed with water twice then re-suspended in […], pH 6.5 and 1% glucose containing 1 mM NaNO3. After 2 hours incubation at 30° C., the supernatant was collected for nitrite assay with 1% Sulfanilamide, 0.01% N-(1-Naphthyl)ethylene-diamine dihydrochloride and 15% (v/v) H3PO4.

The test system of data set [6] is Pichia pastoris cell expressing the indicated nitrate transporter gene. Kind of data set: In vivo nitrate uptake assay (nitrite in medium by Griess reagent, Michaelis-Menten fit). The class given is cell-based. Conditions: transporter co-expressed with YNR1 in Pichia pastoris; 20 mM MOPS pH 6.5, 1% glucose; nitrate 0-30 mM. From the text:
Pichia pastoris is a non-nitrate assimilating yeast. Because of this, any nitrate taken in via the Nrt is converted to nitrite by the co-expressed Nr and diffused or transported to the medium. This property permits the transformed Pichia pastoris to be used as an in vivo nitrate uptake assay, as the amount of nitrate taken into the cells is directly proportional to the nitrite later present in the growth medium. Nitrite may be quantitatively detected using Griess reagent or any other method known in the art. By way of the assay, various kinetic parameters of an Nrt may be quantified, such as Km and Vmax.
The assay is generally performed by incubating transformed Pichia pastoris on a medium containing nitrate for a set amount of time and assessing the amount of nitrite diffused to the medium after that set amount of time. The medium is preferably buffered. Most preferably, the medium has about 20 mM MOPS, pH 6.5, buffer and about 1% glucose, as this buffered medium allows the detection of linear uptake for up to several hours. The table below provides kinetic data for several Nrt proteins ascertained using the in vivo uptake assay herein described:
Pichia pastoris transformants were prepared in accordance with example 1 above and grown in YPD medium at 30° C. for 1 day. Cell pellets were washed twice with water then resuspended with a proper amount of uptake medium including nitrate. 24 different nitrate concentrations were tested, ranging from 0-30 mM. Optimal results were obtained with a buffered medium such as 20 mM MOPS, pH 6.5, 1% glucose, and the varying concentrations of nitrate. The aliquots were transferred into a 96-well plate; supernatants were mixed with Greiss reagent and monitored at 545 nm using a plate reader produced by Molecular Devices.
The raw data were fitted into proper kinetic equations, such as the Michaelis-Menton equation, using a program such as KaleidaGraph, available from Synergy Software, Reading Pa., USA. This in vivo uptake assay permits the kinetics of various nitrate transporters to be ascertained, such as those listed in Table 1 above.
On the technique in general: Griess reagent forms a coloured azo dye with nitrite.

In general, Km refers to the substrate concentration at which the rate is half of its maximum.

Take `[O-][Cl+2]([O-])O` [chlorate]: in data set [1], the “growth of transformants in chlorate” value is listed as “inhibited”. Besides, in data set [2], the sensitivity to chlorate result is “sensitive”. Also, in data set [3], the “sensitivity of transformants to chlorate” value is reported as “less sensitive”. For the same molecule, the “chlorate concentration to which functional transformants are sensitive” value in data set [4] is on record as “about 0.5 mM”.
For “HvNrt2.1: barley carrier-type protein Nrt2 of two-component HATS, SEQ ID NO: 5”, in data set [5], the NT activity result is “did not have NT activity”.

B1: AtNrt1.3: higher plant nitrate transporter protein, GenBank accession AB019232 (protein, UniProt Q9LVE0 1-590, looked up)
Protein NRT1/ PTR FAMILY 6.4: MVHVSSSHGAKDGSEEAYDYRGNPPDKSKTGGWLGAGLILGSELSERICVMGISMNLVTYLVGDLHISSAKSATIVTNFMGTLNLLGLLGGFLADAKLGRYKMVAISASVTALGVLLLTVATTISSMRPPICDDFRRLHHQCIEANGHQLALLYVALYTIALGGGGIKSNVSGFGSDQFDTSDPKEEKQMIFFFNRFYFSISVGSLFAVIALVYVQDNVGRGWGYGISAATMVVAAIVLLCGTKRYRFKKPKGSPFTTIWRVGFLAWKKRKESYPAHPSLLNGYDNTTVPHTEMLKCLDKAAISKNESSPSSKDFEEKDPWIVSTVTQVEEVKLVMKLVPIWATNILFWTIYSQMTTFTVEQATFMDRKLGSFTVPAGSYSAFLILTILLFTSLNERVFVPLTRRLTKKPQGITSLQRIGVGLVFSMAAMAVAAVIENARREAAVNNDKKISAFWLVPQYFLVGAGEAFAYVGQLEFFIREAPERMKSMSTGLFLSTISMGFFVSSLLVSLVDRVTDKSWLRSNLNKARLNYFYWLLVVLGALNFLIFIVFAMKHQYKADVITVVVTDDDSVEKEVTKKESSEFELKDIP
As for B1, in data set [6], the Km amounted to 7400 µM and the “Vmax, μM of nitrate taken up in one minute by 50 μl Pichia pastoris cell” value (“Vmax, μM of nitrate taken up” for short) turned out to be 14.4 μM/m/50 μl cell.

B2: AtNrt1.1: higher plant nitrate transporter protein, GenBank accession L10357 (protein, UniProt Q05085 1-590, looked up)
Protein NRT1/ PTR FAMILY 6.3: MSLPETKSDDILLDAWDFQGRPADRSKTGGWASAAMILCIEAVERLTTLGIGVNLVTYLTGTMHLGNATAANTVTNFLGTSFMLCLLGGFIADTFLGRYLTIAIFAAIQATGVSILTLSTIIPGLRPPRCNPTTSSHCEQASGIQLTVLYLALYLTALGTGGVKASVSGFGSDQFDETEPKERSKMTYFFNRFFFCINVGSLLAVTVLVYVQDDVGRKWGYGICAFAIVLALSVFLAGTNRYRFKKLIGSPMTQVAAVIVAAWRNRKLELPADPSYLYDVDDIIAAEGSMKGKQKLPHTEQFRSLDKAAIRDQEAGVTSNVFNKWTLSTLTDVEEVKQIVRMLPIWATCILFWTVHAQLTTLSVAQSETLDRSIGSFEIPPASMAVFYVGGLLLTTAVYDRVAIRLCKKLFNYPHGLRPLQRIGLGLFFGSMAMAVAALVELKRLRTAHAHGPTVKTLPLGFYLLIPQYLIVGIGEALIYTGQLDFFLRECPKGMKGMSTGLLLSTLALGFFFSSVLVTIVEKFTGKAHPWIADDLNKGRLYNFYWLVAVLVALNFLIFLVFSKWYVYKEKRLAEVGIELDDEPSIPMGH
Regarding B2, in data set [6], the Km came out at 360 µM and the “Vmax, μM of nitrate taken up” value amounted to 8.0 μM/m/50 μl cell.

B3: AtNrt1.4: higher plant nitrate transporter protein, GenBank accession AC003105 (protein, UniProt Q9SZY4 1-577, looked up)
Protein NRT1/ PTR FAMILY 6.2: MESKGSWTVADAVDYKGRPADKSKTGGWITAALILGIEVVERLSTMGIAVNLVTYLMETMHLPSSTSANIVTDFMGTSFLLCLLGGFLADSFLGRFKTIGIFSTIQALGTGALAVATKLPELRPPTCHHGEACIPATAFQMTILYVSLYLIALGTGGLKSSISGFGSDQFDDKDPKEKAHMAFFFNRFFFFISMGTLLAVTVLVYMQDEVGRSWAYGICTVSMAIAIVIFLCGTKRYRYKKSQGSPVVQIFQVIAAAFRKRKMELPQSIVYLYEDNPEGIRIEHTDQFHLLDKAAIVAEGDFEQTLDGVAIPNPWKLSSVTKVEEVKMMVRLLPIWATTIIFWTTYAQMITFSVEQASTMRRNIGSFKIPAGSLTVFFVAAILITLAVYDRAIMPFWKKWKGKPGFSSLQRIAIGLVLSTAGMAAAALVEQKRLSVAKSSSQKTLPISVFLLVPQFFLVGAGEAFIYTGQLDFFITQSPKGMKTMSTGLFLTTLSLGFFVSSFLVSIVKRVTSTSTDVGWLADNINHGRLDYFYWLLVILSGINFVVYIICALWFKPTKGKDSVEKENGKGFSVEDC
On to B3, for which, in data set [6], the Km came to 610 µM and the “Vmax, μM of nitrate taken up” value turned out to be 4.0 μM/m/50 μl cell.

B4: HvNar2.3: barley associate protein Nar2 of two-component HATS, SEQ ID NO: 6 (protein)
chain: MARQGMVTALLLLVLAAGCCASAGAVAYLSKLPVTLDVTASPTPGQVLHAGEDVITVTWALNASQPAGKDADYKNVKVSLCYAPVSQKEREWRKTHDDLKKDKTCQFKITQQAYPGAGKVEYRVALDIPTATYYVRAYALDASGTQVAYGQTAPTAAFNVVSITGVTTSIKVAAGVFSAFSVASLAFFFFIEKRKKNN
modifications: Hordeum vulgare
For B4, in data set [5], the NT activity entry was “did not have NT activity”.
